Data on one substance can be found in doi:10.1101/2020.05.03.074682.

For this test, the target named is biotinylated C-terminal cytosolic tail of GCS. The test is described as follows: ITC. In general terms: Isothermal titration calorimetry measures the heat released or taken up as one component is titrated into another.

For orientation: Kd means the constant that tells how readily two partners part at equilibrium. Higher therefore signals weaker binding.

Regarding “GRASP domain of GRASP55 (recombinant, used for ITC) (domain or fragment)”, the Kd was determined as 2000 nM.
